From the Immune Epitope Database (IEDB)

Key:
HLA-A*24:02 [1] = assay: IEDB peptide-MHC binding, purified MHC/competitive/fluorescence; filed as Kd, often an IC50 or EC50 that approximates it; ≥ and ≤ were set here for values at or beyond the usual limits of such assays
HLA-C*07:02 = assay: IEDB peptide-MHC binding, purified MHC/direct/fluorescence; filed as Kd, often an IC50 or EC50 that approximates it; ≥ and ≤ were set here for values at or beyond the usual limits of such assays
HLA-A*02:03 = assay: IEDB peptide-MHC binding, purified MHC/competitive/fluorescence; filed as Kd, often an IC50 or EC50 that approximates it; ≥ and ≤ were set here for values at or beyond the usual limits of such assays
HLA-A*02:06 = assay: as above
HLA-B*08:01 = assay: as above; conditions: source organism: Homo sapiens
HLA-A*26:02 = assay: as above
HLA-B*15:01 [2] = assay: as above; conditions: source organism: Homo sapiens
HLA-A*30:01 = assay: as above; conditions: source organism: Homo sapiens
HLA-A*26:03 = assay: as above; conditions: source organism: Homo sapiens
HLA-B*39:01 = assay: as above; conditions: source organism: Homo sapiens
HLA-B*18:01 = assay: as above; conditions: source organism: Homo sapiens
HLA-A*03:01 = assay: IEDB peptide-MHC binding, purified MHC/competitive/fluorescence; ≥ and ≤ were set here for values at or beyond the usual limits of such assays; conditions: source organism: Vaccinia virus WR
HLA-B*15:01 [3] = assay: as above; conditions: source organism: Vaccinia virus WR
HLA-A*24:02 [4] = assay: as above; conditions: source organism: Vaccinia virus WR
HLA-A*02:01 [5] = assay: as above; conditions: source organism: Vaccinia virus WR
HLA-A*01:01 [6] = assay: as above; conditions: source organism: Vaccinia virus WR
HLA-A*11:01 = assay: as above; conditions: source organism: Vaccinia virus WR
HLA-B*35:01 = assay: IEDB peptide-MHC binding, purified MHC/competitive/fluorescence; filed as Kd, often an IC50 or EC50 that approximates it; ≥ and ≤ were set here for values at or beyond the usual limits of such assays; conditions: source organism: Human immunodeficiency virus 1
HLA-B*15:17 = assay: as above; conditions: source organism: Human immunodeficiency virus 1
HLA-A*02:01 [7] = assay: as above; conditions: source organism: Human immunodeficiency virus 1
HLA-B*83:01 = assay: as above
HLA-B*15:42 = assay: as above
HLA-C*14:02 [8] = assay: as above
HLA-C*04:01 = assay: as above
HLA-B*45:06 = assay: as above
HLA-C*06:02 [9] = assay: as above; conditions: source organism: Mycobacterium tuberculosis variant bovis BCG str. Pasteur 1173P2
HLA-A*68:23 = assay: as above; conditions: source organism: Mycobacterium tuberculosis variant bovis BCG str. Pasteur 1173P2
HLA-A*32:07 = assay: as above; conditions: source organism: Staphylococcus aureus subsp. aureus N315
HLA-A*01:01 [10] = assay: as above; conditions: source organism: Staphylococcus aureus subsp. aureus N315
HLA-A*32:15 = assay: as above; conditions: source organism: Staphylococcus aureus subsp. aureus N315
HLA-A*29:02 = assay: as above; conditions: source organism: Staphylococcus aureus subsp. aureus N315
HLA-C*14:02 [11] = assay: IEDB peptide-MHC binding, purified MHC/direct/fluorescence; filed as Kd, often an IC50 or EC50 that approximates it; ≥ and ≤ were set here for values at or beyond the usual limits of such assays; conditions: source organism: Rickettsia felis URRWXCal2
HLA-C*06:02 [12] = assay: as above
HLA-C*15:02 = assay: as above
HLA-B*40:02 = assay: IEDB peptide-MHC binding, cellular MHC/competitive/fluorescence; ≥ and ≤ were set here for values at or beyond the usual limits of such assays; conditions: source organism: Homo sapiens
HLA-A*24:02 [13] = assay: as above; conditions: source organism: Human herpesvirus 5 strain AD169
HLA-A*03:19 = assay: IEDB peptide-MHC binding, purified MHC/competitive/fluorescence; filed as Kd, often an IC50 or EC50 that approximates it; ≥ and ≤ were set here for values at or beyond the usual limits of such assays; conditions: source organism: human gammaherpesvirus 4
HLA-C*12:03 = assay: IEDB peptide-MHC binding, purified MHC/direct/fluorescence; filed as Kd, often an IC50 or EC50 that approximates it; ≥ and ≤ were set here for values at or beyond the usual limits of such assays; conditions: source organism: Giardia lamblia ATCC 50803
HLA-C*05:01 = assay: as above; conditions: source organism: Giardia lamblia ATCC 50803
HLA-C*03:03 = assay: as above; conditions: source organism: Giardia lamblia ATCC 50803
HLA-C*08:02 = assay: as above; conditions: source organism: Giardia lamblia ATCC 50803
HLA-B*27:20 = assay: IEDB peptide-MHC binding, purified MHC/competitive/fluorescence; filed as Kd, often an IC50 or EC50 that approximates it; ≥ and ≤ were set here for values at or beyond the usual limits of such assays; conditions: source organism: Giardia lamblia ATCC 50803
HLA-B*46:01 = assay: as above; conditions: source organism: Giardia lamblia ATCC 50803
[14] = source organism: Human immunodeficiency virus 1
[15] = source organism: Mycobacterium tuberculosis variant bovis BCG str. Pasteur 1173P2
[16] = source organism: Staphylococcus aureus subsp. aureus N315
[17] = source organism: Rickettsia felis URRWXCal2
[18] = source organism: human gammaherpesvirus 4
[19] = source organism: Giardia lamblia ATCC 50803

EYLRIPLTI
Kd (HLA-A*24:02 [1]; source organism: Entamoeba histolytica HM-1:IMSS): ≤ 0.1 nM

FRHSVVVPY
Kd (HLA-C*07:02; source organism: Homo sapiens): ≤ 1 nM | Kd (HLA-A*02:03; source organism: Homo sapiens): ≥ 20000 nM | Kd (HLA-A*02:06; source organism: Homo sapiens): ≥ 20000 nM | Kd (HLA-B*08:01): ≥ 20000 nM | Kd (HLA-A*26:02; source organism: Homo sapiens): ≥ 20000 nM | Kd (HLA-B*15:01 [2]): 315 nM | Kd (HLA-A*30:01): 4080 nM | Kd (HLA-A*26:03): ≥ 20000 nM | Kd (HLA-B*39:01): ≥ 20000 nM | Kd (HLA-B*18:01): 477 nM

ITCKAFGLY
IC50 (HLA-A*03:01): 15400 nM | IC50 (HLA-B*15:01 [3]): 14000 nM | IC50 (HLA-A*24:02 [4]): ≥ 85100 nM | IC50 (HLA-A*02:01 [5]): ≥ 173000 nM | IC50 (HLA-A*01:01 [6]): 1550 nM | IC50 (HLA-A*11:01): 2820 nM

LYNTIAVLY
Kd (HLA-C*07:02; [14]): 2130 nM | Kd (HLA-B*35:01): 1870 nM | Kd (HLA-A*02:03; [14]): 721 nM | Kd (HLA-A*02:06; [14]): 759 nM | Kd (HLA-A*26:02; [14]): ≥ 20000 nM | Kd (HLA-B*15:17): ≥ 20000 nM | Kd (HLA-A*02:01 [7]): 2320 nM

MAAVRTTAL
Kd (HLA-B*83:01; [15]): 508 nM | Kd (HLA-B*15:42; [15]): ≥ 5000 nM | Kd (HLA-C*14:02 [8]; [15]): 14.4 nM | Kd (HLA-C*04:01; [15]): ≥ 20000 nM | Kd (HLA-B*45:06; [15]): ≥ 5000 nM | Kd (HLA-C*06:02 [9]): 104 nM | Kd (HLA-A*68:23): 5.5 nM

MVIKWIHER
Kd (HLA-B*15:42; [16]): ≥ 5000 nM | Kd (HLA-A*32:07): 203 nM | Kd (HLA-B*45:06; [16]): ≥ 5000 nM | Kd (HLA-A*01:01 [10]): 17000 nM | Kd (HLA-A*32:15): 52.5 nM | Kd (HLA-A*29:02): 548 nM

RWLPLVSLF
Kd (HLA-C*14:02 [11]): 399 nM | Kd (HLA-C*06:02 [12]; [17]): ≥ 20000 nM | Kd (HLA-C*15:02; [17]): ≥ 20000 nM | Kd (HLA-A*24:02 [1]; [17]): ≤ 0.1 nM

SSYGNIRAV
IC50 (HLA-B*40:02): 1800 nM

VYALPLKML
IC50 (HLA-A*24:02 [13]): 7500 nM

WPTPKTHPV
Kd (HLA-B*83:01; [18]): 3470 nM | Kd (HLA-B*15:42; [18]): ≥ 5000 nM | Kd (HLA-C*14:02 [8]; [18]): 142 nM | Kd (HLA-A*03:19): 1080 nM | Kd (HLA-B*45:06; [18]): ≥ 5000 nM

YMRERFEPM
Kd (HLA-C*12:03): 38 nM | Kd (HLA-C*05:01): ≥ 20000 nM | Kd (HLA-C*03:03): 452 nM | Kd (HLA-C*08:02): ≥ 20000 nM | Kd (HLA-C*06:02 [12]; [19]): 22 nM | Kd (HLA-C*15:02; [19]): 70 nM | Kd (HLA-B*83:01; [19]): ≥ 5000 nM | Kd (HLA-B*27:20): 0.5 nM | Kd (HLA-B*15:42; [19]): ≥ 5000 nM | Kd (HLA-C*14:02 [8]; [19]): 0.3 nM | Kd (HLA-B*46:01): 21.8 nM | Kd (HLA-C*04:01; [19]): ≥ 5000 nM | Kd (HLA-B*45:06; [19]): ≥ 5000 nM
